Results as given in PMC9482650, “Quantitative fragmentomics allow affinity mapping of interactomes” (Nature Communications, 2022).

T1: APBA1_2, Q02410
T1 sequence (Q02410 742-832, limits assumed, looked up): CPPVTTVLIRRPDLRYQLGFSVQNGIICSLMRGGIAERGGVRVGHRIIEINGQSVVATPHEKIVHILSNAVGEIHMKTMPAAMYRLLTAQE

T2: APBA3_1, O96018
T2 sequence (O96018 389-490, limits assumed, looked up): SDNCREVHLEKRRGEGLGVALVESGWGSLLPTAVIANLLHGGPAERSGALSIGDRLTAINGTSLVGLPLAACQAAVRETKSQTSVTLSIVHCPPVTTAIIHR

T3: DFNB31_1, Q9P202
T3 sequence (Q9P202 135-233, limits assumed, looked up): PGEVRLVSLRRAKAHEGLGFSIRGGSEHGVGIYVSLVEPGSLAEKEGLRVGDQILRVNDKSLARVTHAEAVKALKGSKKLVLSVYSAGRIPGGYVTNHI

T4: DFNB31_3, Q9P202
T4 sequence (Q9P202 811-907, limits assumed, looked up): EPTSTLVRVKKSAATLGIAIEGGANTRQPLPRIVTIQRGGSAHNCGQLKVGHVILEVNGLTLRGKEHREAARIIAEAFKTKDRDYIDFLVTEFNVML

T5: GRIP1_3, Q9Y3R0
T5 sequence (Q9Y3R0 247-346, limits assumed, looked up): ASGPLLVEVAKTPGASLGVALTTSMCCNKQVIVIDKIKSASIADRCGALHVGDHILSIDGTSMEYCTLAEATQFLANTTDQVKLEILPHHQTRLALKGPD

T6: GRIP1_7, Q9Y3R0
T6 sequence (Q9Y3R0 999-1096, limits assumed, looked up): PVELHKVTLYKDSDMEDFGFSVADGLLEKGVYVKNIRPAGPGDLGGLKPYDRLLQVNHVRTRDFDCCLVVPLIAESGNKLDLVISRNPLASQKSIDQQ

T7: MPDZ_12, O75970
T7 sequence (O75970 1857-1958, limits assumed, looked up): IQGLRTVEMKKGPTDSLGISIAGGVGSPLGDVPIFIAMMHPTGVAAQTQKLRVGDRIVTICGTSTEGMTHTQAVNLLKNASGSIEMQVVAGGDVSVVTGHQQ

T8: MPP6, Q9NZW5
T8 sequence (Q9NZW5 125-219, limits assumed, looked up): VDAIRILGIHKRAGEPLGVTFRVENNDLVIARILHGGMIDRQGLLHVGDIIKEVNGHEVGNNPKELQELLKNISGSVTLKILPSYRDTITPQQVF

T9: PDZD7_3, Q9H5P4
T9 sequence (Q9H5P4 857-944, limits assumed, looked up): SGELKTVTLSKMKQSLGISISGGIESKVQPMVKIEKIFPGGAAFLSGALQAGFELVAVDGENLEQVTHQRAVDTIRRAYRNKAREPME

T10: PTPN13_1, Q12923
T10 sequence (Q12923 1088-1188, limits assumed, looked up): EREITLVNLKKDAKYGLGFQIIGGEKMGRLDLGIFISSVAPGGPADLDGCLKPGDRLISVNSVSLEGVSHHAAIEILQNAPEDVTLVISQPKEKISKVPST

T11: SHANK1, Q9Y566
T11 sequence (Q9Y566 658-767, limits assumed, looked up): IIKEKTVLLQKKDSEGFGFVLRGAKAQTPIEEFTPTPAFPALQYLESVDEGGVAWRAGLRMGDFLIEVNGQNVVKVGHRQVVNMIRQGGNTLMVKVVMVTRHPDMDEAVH

T12: SYNJ2BP, P57105
T12 sequence (P57105 8-110, limits assumed, looked up): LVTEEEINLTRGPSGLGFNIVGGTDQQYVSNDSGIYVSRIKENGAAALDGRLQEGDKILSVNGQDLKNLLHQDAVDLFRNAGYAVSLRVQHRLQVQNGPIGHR


Biological target: AHNAK1, Q09666
Sequence (Q09666 4-100): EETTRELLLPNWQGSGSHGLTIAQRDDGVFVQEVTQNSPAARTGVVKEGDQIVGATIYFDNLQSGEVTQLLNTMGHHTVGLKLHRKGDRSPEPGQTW
Experiment: holdup assay
Parameters: key: below the threshold = too weak to quantify, mostly under pKd 3.1 to 4
Conditions: plain residues with an end cap or a label only (N-terminal biotin on a linker: ado-ado)

Binder	pKd
PSVYSRSQYV [CLDN8, P56748]	below the threshold
GDSSRKEYFI [GYPC, P04921]	below the threshold

Biological target: T1, APBA1_2, Q02410
Experiment: holdup assay
Parameters: key: below the threshold = too weak to quantify, mostly under pKd 3.1 to 4
Conditions: plain residues with an end cap or a label only (N-terminal biotin on a linker: ado-ado)

Binder	pKd
PSVYSRSQYV [CLDN8, P56748]	3.92
GDSSRKEYFI [GYPC, P04921]	3.73

Biological target: T2, APBA3_1, O96018
Experiment: holdup assay
Parameters: key: below the threshold = too weak to quantify, mostly under pKd 3.1 to 4
Conditions: plain residues with an end cap or a label only (N-terminal biotin on a linker: ado-ado)

Binder	pKd
PSVYSRSQYV [CLDN8, P56748]	below the threshold
GDSSRKEYFI [GYPC, P04921]	below the threshold

Biological target: T3, DFNB31_1, Q9P202
Experiment: holdup assay
Parameters: key: below the threshold = too weak to quantify, mostly under pKd 3.1 to 4
Conditions: plain residues with an end cap or a label only (N-terminal biotin on a linker: ado-ado)

Binder	pKd
PSVYSRSQYV [CLDN8, P56748]	below the threshold
GDSSRKEYFI [GYPC, P04921]	below the threshold

Biological target: T4, DFNB31_3, Q9P202
Experiment: holdup assay
Parameters: key: below the threshold = too weak to quantify, mostly under pKd 3.1 to 4
Conditions: plain residues with an end cap or a label only (N-terminal biotin on a linker: ado-ado)

Binder	pKd
PSVYSRSQYV [CLDN8, P56748]	below the threshold
GDSSRKEYFI [GYPC, P04921]	3.81

Biological target: DLG1_1, Q12959
Experiment: holdup assay
Parameters: key: below the threshold = too weak to quantify, mostly under pKd 3.1 to 4
Conditions: plain residues with an end cap or a label only (N-terminal biotin on a linker: ado-ado)

Binder	pKd
PSVYSRSQYV [CLDN8, P56748]	below the threshold
GDSSRKEYFI [GYPC, P04921]	3.49

Biological target: DLG4_2, P78352
Sequence (P78352 155-259): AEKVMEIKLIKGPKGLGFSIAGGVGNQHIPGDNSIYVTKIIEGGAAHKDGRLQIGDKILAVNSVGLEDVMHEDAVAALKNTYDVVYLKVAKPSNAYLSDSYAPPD
Experiment: holdup assay
Parameters: key: below the threshold = too weak to quantify, mostly under pKd 3.1 to 4
Conditions: plain residues with an end cap or a label only (N-terminal biotin on a linker: ado-ado)

Binder	pKd
PSVYSRSQYV [CLDN8, P56748]	3.79
GDSSRKEYFI [GYPC, P04921]	3.61

Biological target: DLG4_3, P78352
Sequence (P78352 306-403): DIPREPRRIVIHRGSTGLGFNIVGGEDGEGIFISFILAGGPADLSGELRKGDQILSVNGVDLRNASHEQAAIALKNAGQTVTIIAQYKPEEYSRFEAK
Experiment: holdup assay
Parameters: key: below the threshold = too weak to quantify, mostly under pKd 3.1 to 4
Conditions: plain residues with an end cap or a label only (N-terminal biotin on a linker: ado-ado)

Binder	pKd
PSVYSRSQYV [CLDN8, P56748]	below the threshold
GDSSRKEYFI [GYPC, P04921]	below the threshold

Biological target: DLG5_1, Q8TDM6
Sequence (Q8TDM6 617-713): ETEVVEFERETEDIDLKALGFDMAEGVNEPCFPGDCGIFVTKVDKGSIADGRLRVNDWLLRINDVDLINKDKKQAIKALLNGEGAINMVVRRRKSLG
Experiment: holdup assay
Parameters: key: below the threshold = too weak to quantify, mostly under pKd 3.1 to 4
Conditions: plain residues with an end cap or a label only (N-terminal biotin on a linker: ado-ado)

Binder	pKd
PSVYSRSQYV [CLDN8, P56748]	below the threshold
GDSSRKEYFI [GYPC, P04921]	below the threshold

Biological target: FRMPD2_3, Q68DX3
Sequence (Q68DX3 1073-1166): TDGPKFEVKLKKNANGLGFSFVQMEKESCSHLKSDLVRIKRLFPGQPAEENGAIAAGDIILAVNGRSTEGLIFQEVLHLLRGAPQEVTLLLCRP
Experiment: holdup assay
Parameters: key: below the threshold = too weak to quantify, mostly under pKd 3.1 to 4
Conditions: plain residues with an end cap or a label only (N-terminal biotin on a linker: ado-ado)

Binder	pKd
PSVYSRSQYV [CLDN8, P56748]	below the threshold
GDSSRKEYFI [GYPC, P04921]	3.76

Biological target: GRID2IP_1, A4D2P6
Sequence (A4D2P6 1-87): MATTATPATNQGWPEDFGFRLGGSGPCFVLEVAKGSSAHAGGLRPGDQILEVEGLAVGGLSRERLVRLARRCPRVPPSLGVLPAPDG
Experiment: holdup assay
Parameters: key: below the threshold = too weak to quantify, mostly under pKd 3.1 to 4
Conditions: plain residues with an end cap or a label only (N-terminal biotin on a linker: ado-ado)

Binder	pKd
PSVYSRSQYV [CLDN8, P56748]	below the threshold
GDSSRKEYFI [GYPC, P04921]	below the threshold

Biological target: GRID2IP_2, A4D2P6
Sequence (A4D2P6 272-370): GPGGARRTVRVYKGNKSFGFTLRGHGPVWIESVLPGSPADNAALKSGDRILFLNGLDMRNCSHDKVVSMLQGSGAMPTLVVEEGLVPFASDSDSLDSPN
Experiment: holdup assay
Parameters: key: below the threshold = too weak to quantify, mostly under pKd 3.1 to 4
Conditions: plain residues with an end cap or a label only (N-terminal biotin on a linker: ado-ado)

Binder	pKd
PSVYSRSQYV [CLDN8, P56748]	3.56
GDSSRKEYFI [GYPC, P04921]	below the threshold

Biological target: T5, GRIP1_3, Q9Y3R0
Experiment: holdup assay
Parameters: key: below the threshold = too weak to quantify, mostly under pKd 3.1 to 4
Conditions: plain residues with an end cap or a label only (N-terminal biotin on a linker: ado-ado)

Binder	pKd
PSVYSRSQYV [CLDN8, P56748]	below the threshold
GDSSRKEYFI [GYPC, P04921]	below the threshold

Biological target: T6, GRIP1_7, Q9Y3R0
Experiment: holdup assay
Parameters: key: below the threshold = too weak to quantify, mostly under pKd 3.1 to 4
Conditions: plain residues with an end cap or a label only (N-terminal biotin on a linker: ado-ado)

Binder	pKd
PSVYSRSQYV [CLDN8, P56748]	below the threshold
GDSSRKEYFI [GYPC, P04921]	3.76

Biological target: Inadl_8, Q8NI35
Sequence (Q8NI35 1425-1530): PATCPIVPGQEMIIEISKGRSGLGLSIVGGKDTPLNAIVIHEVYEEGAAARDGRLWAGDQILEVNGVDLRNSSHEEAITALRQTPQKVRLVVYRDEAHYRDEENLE
Experiment: holdup assay
Parameters: key: below the threshold = too weak to quantify, mostly under pKd 3.1 to 4
Conditions: plain residues with an end cap or a label only (N-terminal biotin on a linker: ado-ado)

Binder	pKd
PSVYSRSQYV [CLDN8, P56748]	3.84
GDSSRKEYFI [GYPC, P04921]	below the threshold

Biological target: MAGI1_1, Q96QZ7
Sequence (Q96QZ7 1-106): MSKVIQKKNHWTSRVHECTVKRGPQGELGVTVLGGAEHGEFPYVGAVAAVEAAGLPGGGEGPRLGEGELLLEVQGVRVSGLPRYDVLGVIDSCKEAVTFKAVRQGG
Experiment: holdup assay
Parameters: key: below the threshold = too weak to quantify, mostly under pKd 3.1 to 4
Conditions: plain residues with an end cap or a label only (N-terminal biotin on a linker: ado-ado)

Binder	pKd
PSVYSRSQYV [CLDN8, P56748]	below the threshold
GDSSRKEYFI [GYPC, P04921]	below the threshold

Biological target: MAGI1_2, Q96QZ7
Sequence (Q96QZ7 456-580): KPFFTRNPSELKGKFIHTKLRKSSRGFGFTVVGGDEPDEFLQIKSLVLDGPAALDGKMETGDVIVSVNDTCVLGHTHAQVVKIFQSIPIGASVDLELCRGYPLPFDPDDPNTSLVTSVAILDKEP
Experiment: holdup assay
Parameters: key: below the threshold = too weak to quantify, mostly under pKd 3.1 to 4
Conditions: plain residues with an end cap or a label only (N-terminal biotin on a linker: ado-ado)

Binder	pKd
PSVYSRSQYV [CLDN8, P56748]	below the threshold
GDSSRKEYFI [GYPC, P04921]	below the threshold

Biological target: T7, MPDZ_12, O75970
Experiment: holdup assay
Parameters: key: below the threshold = too weak to quantify, mostly under pKd 3.1 to 4
Conditions: plain residues with an end cap or a label only (N-terminal biotin on a linker: ado-ado)

Binder	pKd
PSVYSRSQYV [CLDN8, P56748]	below the threshold
GDSSRKEYFI [GYPC, P04921]	3.5

Biological target: T8, MPP6, Q9NZW5
Experiment: holdup assay
Parameters: key: below the threshold = too weak to quantify, mostly under pKd 3.1 to 4
Conditions: plain residues with an end cap or a label only (N-terminal biotin on a linker: ado-ado)

Binder	pKd
PSVYSRSQYV [CLDN8, P56748]	below the threshold
GDSSRKEYFI [GYPC, P04921]	4.7

Biological target: NHERF2_2, Q15599
Sequence (Q15599 142-238): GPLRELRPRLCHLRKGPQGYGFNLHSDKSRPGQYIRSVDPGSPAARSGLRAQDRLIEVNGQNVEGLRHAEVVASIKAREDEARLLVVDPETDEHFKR
Experiment: holdup assay
Parameters: key: below the threshold = too weak to quantify, mostly under pKd 3.1 to 4
Conditions: plain residues with an end cap or a label only (N-terminal biotin on a linker: ado-ado)

Binder	pKd
PSVYSRSQYV [CLDN8, P56748]	below the threshold
GDSSRKEYFI [GYPC, P04921]	below the threshold

Biological target: T9, PDZD7_3, Q9H5P4
Experiment: holdup assay
Parameters: key: below the threshold = too weak to quantify, mostly under pKd 3.1 to 4
Conditions: plain residues with an end cap or a label only (N-terminal biotin on a linker: ado-ado)

Binder	pKd
PSVYSRSQYV [CLDN8, P56748]	below the threshold
GDSSRKEYFI [GYPC, P04921]	below the threshold

Biological target: PDZRN4_1, Q6ZMN7
Sequence (Q6ZMN7 213-318): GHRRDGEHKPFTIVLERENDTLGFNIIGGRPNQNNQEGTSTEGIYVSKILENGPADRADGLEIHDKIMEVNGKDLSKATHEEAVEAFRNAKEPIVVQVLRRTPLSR
Experiment: holdup assay
Parameters: key: below the threshold = too weak to quantify, mostly under pKd 3.1 to 4
Conditions: plain residues with an end cap or a label only (N-terminal biotin on a linker: ado-ado)

Binder	pKd
PSVYSRSQYV [CLDN8, P56748]	below the threshold
GDSSRKEYFI [GYPC, P04921]	below the threshold

Biological target: T10, PTPN13_1, Q12923
Experiment: holdup assay
Parameters: key: below the threshold = too weak to quantify, mostly under pKd 3.1 to 4
Conditions: plain residues with an end cap or a label only (N-terminal biotin on a linker: ado-ado)

Binder	pKd
PSVYSRSQYV [CLDN8, P56748]	below the threshold
GDSSRKEYFI [GYPC, P04921]	below the threshold

Biological target: T11, SHANK1, Q9Y566
Experiment: holdup assay
Parameters: key: below the threshold = too weak to quantify, mostly under pKd 3.1 to 4
Conditions: plain residues with an end cap or a label only (N-terminal biotin on a linker: ado-ado)

Binder	pKd
PSVYSRSQYV [CLDN8, P56748]	below the threshold
GDSSRKEYFI [GYPC, P04921]	below the threshold

Biological target: T12, SYNJ2BP, P57105
Experiment: holdup assay
Parameters: key: below the threshold = too weak to quantify, mostly under pKd 3.1 to 4
Conditions: plain residues with an end cap or a label only (N-terminal biotin on a linker: ado-ado)

Binder	pKd
PSVYSRSQYV [CLDN8, P56748]	below the threshold
GDSSRKEYFI [GYPC, P04921]	below the threshold

Biological target: TJP1_3, Q07157
Sequence (Q07157 416-512): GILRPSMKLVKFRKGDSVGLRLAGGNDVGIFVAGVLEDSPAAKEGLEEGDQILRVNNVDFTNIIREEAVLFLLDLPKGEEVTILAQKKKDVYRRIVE
Experiment: holdup assay
Parameters: key: below the threshold = too weak to quantify, mostly under pKd 3.1 to 4
Conditions: plain residues with an end cap or a label only (N-terminal biotin on a linker: ado-ado)

Binder	pKd
PSVYSRSQYV [CLDN8, P56748]	below the threshold
GDSSRKEYFI [GYPC, P04921]	below the threshold
